Test results from patent publication US20060134122A1, “Peptides of syndecan-1 for inhibition of cancer” (priority 2004, published 2006).

Tests used:
[1] = target: αvβ3 integrin (human, on MDA-MB-231, MDA-MB-435, HAEC and HMEC cells) (human) (UniProt P06756); assay: cell-based or functional assay
αvβ3 integrin [2] = target: T1, αvβ3 integrin (Homo sapiens, UniProt P05106+P06756); assay: WOW1 Fab binding (activated αvβ3 integrin), MDA-MB-435; format: cell-based; details: cells adherent to mAb B-B4; 20 μM GST-mS1ED
T1 construct: endogenous in cells; host or cells: MDA-MB-435 (A4) and MDA-MB-231 (A5) human mammary carcinoma cells
T1 sequence (P06756 31-889 limits assumed): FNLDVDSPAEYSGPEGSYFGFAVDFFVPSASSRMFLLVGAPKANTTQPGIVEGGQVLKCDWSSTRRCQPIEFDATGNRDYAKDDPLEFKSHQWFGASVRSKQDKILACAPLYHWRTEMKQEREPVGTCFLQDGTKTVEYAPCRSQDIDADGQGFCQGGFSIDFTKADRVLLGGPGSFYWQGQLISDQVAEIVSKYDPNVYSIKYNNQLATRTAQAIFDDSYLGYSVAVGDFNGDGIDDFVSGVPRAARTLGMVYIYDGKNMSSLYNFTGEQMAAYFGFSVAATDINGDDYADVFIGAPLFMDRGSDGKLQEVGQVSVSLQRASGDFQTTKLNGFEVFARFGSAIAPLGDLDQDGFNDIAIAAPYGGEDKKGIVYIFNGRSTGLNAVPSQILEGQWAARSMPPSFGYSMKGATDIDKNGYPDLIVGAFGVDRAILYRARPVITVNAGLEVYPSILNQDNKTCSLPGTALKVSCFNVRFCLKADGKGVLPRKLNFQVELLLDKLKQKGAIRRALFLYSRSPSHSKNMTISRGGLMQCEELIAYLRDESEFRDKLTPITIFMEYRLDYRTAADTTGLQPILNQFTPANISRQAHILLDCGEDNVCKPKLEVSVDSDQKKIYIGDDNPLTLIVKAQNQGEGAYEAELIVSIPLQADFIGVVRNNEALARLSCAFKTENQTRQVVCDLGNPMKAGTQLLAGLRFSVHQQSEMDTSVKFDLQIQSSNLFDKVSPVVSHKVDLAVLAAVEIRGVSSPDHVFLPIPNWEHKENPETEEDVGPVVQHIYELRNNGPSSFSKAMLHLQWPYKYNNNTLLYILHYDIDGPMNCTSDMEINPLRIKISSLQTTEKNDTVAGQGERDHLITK
T1 sequence (P06756 891-1048 limits assumed): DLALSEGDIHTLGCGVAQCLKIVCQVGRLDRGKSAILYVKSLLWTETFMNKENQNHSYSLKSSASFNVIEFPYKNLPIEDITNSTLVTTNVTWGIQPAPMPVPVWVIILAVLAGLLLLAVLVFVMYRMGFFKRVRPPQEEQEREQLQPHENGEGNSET
T1 sequence (P05106 27-788): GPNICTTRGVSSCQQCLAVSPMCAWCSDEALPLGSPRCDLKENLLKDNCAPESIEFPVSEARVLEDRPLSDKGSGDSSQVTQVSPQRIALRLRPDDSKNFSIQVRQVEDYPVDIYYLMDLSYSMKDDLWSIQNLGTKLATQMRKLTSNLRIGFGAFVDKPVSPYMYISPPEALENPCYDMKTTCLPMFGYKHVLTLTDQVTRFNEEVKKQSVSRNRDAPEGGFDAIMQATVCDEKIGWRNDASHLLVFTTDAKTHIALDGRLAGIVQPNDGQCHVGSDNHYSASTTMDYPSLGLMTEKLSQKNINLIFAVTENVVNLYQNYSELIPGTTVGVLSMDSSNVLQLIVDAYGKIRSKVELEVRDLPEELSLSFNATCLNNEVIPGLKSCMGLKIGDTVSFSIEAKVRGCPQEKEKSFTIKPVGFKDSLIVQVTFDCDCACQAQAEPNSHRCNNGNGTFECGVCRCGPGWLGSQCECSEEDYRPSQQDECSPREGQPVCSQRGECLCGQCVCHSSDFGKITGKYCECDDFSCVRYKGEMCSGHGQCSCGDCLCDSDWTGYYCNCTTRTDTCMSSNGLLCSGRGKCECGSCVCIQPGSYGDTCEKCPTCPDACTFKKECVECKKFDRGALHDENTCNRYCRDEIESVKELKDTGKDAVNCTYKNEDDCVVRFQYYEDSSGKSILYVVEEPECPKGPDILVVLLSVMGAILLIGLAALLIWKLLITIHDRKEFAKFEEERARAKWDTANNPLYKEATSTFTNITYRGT
Protocol: (§1) FIGS. 2A-C—Sdc-1 adhesion-mediated cell spreading correlates with αvβ3 integrin. expression and activity. (FIG. 2A) FACS analysis of αvβ3 integrin expression (mAb LM609) in human mammary carcinoma cells against an IgG isotype control. (FIG. 2B) Depicted on split panels are phalloidin-stained MDA-MB-435 (upper half) and MCF-7 (lower half) cells 2 h after plating on wells coated with mAb B-B4 in plating medium alone or medium containing either 30 μg/mL mAb LM609, 1 μg/mL mAb 13 or 20 μM GST-mS1ED. Bar, 50 μm. (FIG. 2C) Untreated MDA-MB-435, MDA-MB-231 and MCF-7 cells (columns 1 and 4) and cells pretreated in suspension with 1 μg/mL mAb 13 (columns 2 and 3) were seeded on wells coated with either mAb B-B4 or COL I in plating medium alone (columns 1, 2 and 4) or medium containing 20 μM GST-mS1ED (column 3). Cells were incubated at 37° C. for 2 h, fixed, permeabilized and stained with WOW1 and an Alexa 488-conjugated secondary. Panel insets are corresponding phase contrast pictures. Bar, 20 μm.
(§2) To verify that cell spreading induced upon Sdc-1 ligation correlates with αvβ3activation, the inventors relied upon binding of the ligand-mimetic WOW1 mouse Fab—a probe that detects activated, but unligated αvβ3 integrin. MDA-MB-435 cells adherent to mAb B-B4 display strong binding of WOW1 both centrally and within puncta at the spreading margin of cells (FIG. 2C). […]

αvβ3 integrin [3] = target: T1, αvβ3 integrin; assay: WOW1 Fab binding (activated αvβ3 integrin), MDA-MB-231; format: cell-based; details: cells adherent to mAb B-B4, pre-treated with 1 μg/mL mAb 13; GST-mS1ED 20 μM
Protocol: as §1, §2

MCF-7 cells = assay: Migration across coated filters (modified Boyden chamber), MCF-7; format: cell-based, human; details: S1ED pAb 250 μg/mL or GST-mS1ED 20 μM; 16 h
Protocol: FIGS. 5A-B—Sdc-1ED Inhibitors disrupt αvβ3 integrin-dependent cell migration on VN. MDA-MB-231, MDA-MB-435 and MCF-7 cells in plating medium alone (black-filled) or in plating medium containing either 20 μM GST-mS1ED (open) or 250 μg/mL polyclonal mS1ED antibodies (gray-filled) were seeded on polycarbonate filters coated with either 10 μg/ml of VN (FIG. 5A) or FN (FIG. 5B) in a modified Boyden chamber. After 16 h, cells that migrated through the filter in response to 10% FBS in the lower chamber were quantified by colorimetric staining.
To test the role of the S1ED in αvβ3 integrin dependent signaling in another functional assay, cells were examined for their ability to migrate across VN or FN-coated filters in the presence or absence of S1ED pAb (250 μg/mL) or GST-mS1ED recombinant protein (20 μM). Migration of treated MDA-MB-231 and MB-435 cells across VN is suppressed 2- to 4-fold relative to untreated controls (FIG. 5A). MCF-7 cell migration across VN, which is αvβ1 dependent, is unaffected by either treatment.

[4] = tested on: Human aortic endothelial cells (HAEC); assay: HAEC spreading on VN; format: cell-based; details: 1-10 uM GST-mS1ED
Protocol: FIG. 13—Human aortic endothelial cells rely on αvβ3 and αvβ5 integrins for spreading on VN. Human aortic endothelial cells (HAECs) were suspended and replated on 10 μg/ml VN in the presence of integrin inhibitory antibodies mAb 13 (specific for β1-containing integrins; this will inhibit the αvβ1 integrin), LM609 (specific for the αvβ3 integrin) and P1F6 (specific for the αvβ5 integrin), or combinations of these antibodies. After 2 hr, the cells were fixed, stained with Alexa488-conjugated phalloidin to aid in visualization, and observed by fluorescence microscopy to document integrin-dependent spreading. Inhibition of spreading requires simultaneous inhibition of both the αvβ3 and αvβ5 integrins.
FIG. 15—αvβ3 and αvβ5 integrin-mediated spreading of human aortic endothelial cells on VN is disrupted by recombinant syndecan-1 ectodomain fusion protein. HAECs are plated on VN in the presence of no competitor, 1-10 uM GST-mS1ED (recombinant mouse syndecan-1 ectodomain expressed as a fusion protein with GST) or GST alone.
FIG. 16—Inhibition of HAEC spreading on VN by silencing of Sdc-1. HAECs were transfected with a range of concentrations of siRNA specific for human Sdc1 (hS1), which achieves 80-88% silencing at 100-200 nM, as shown by flow cytometry using human Sdc-1 mAb B-B4. The cells treated with 200 nM siRNA were also plated on VN for 2 hr and display a 60% reduction in cell spreading. […]

[5] = tested on: MDA-MB-231 human mammary carcinoma cells; details: no integrin ligand; Beauvais and Rapraeger, 2003; cited from earlier work

αvβ3 integrin (human, on MDA-MB-231, MDA-MB-435, HAEC and HMEC cells) (human), sequence (P06756 31-1048, chain 1 of 2): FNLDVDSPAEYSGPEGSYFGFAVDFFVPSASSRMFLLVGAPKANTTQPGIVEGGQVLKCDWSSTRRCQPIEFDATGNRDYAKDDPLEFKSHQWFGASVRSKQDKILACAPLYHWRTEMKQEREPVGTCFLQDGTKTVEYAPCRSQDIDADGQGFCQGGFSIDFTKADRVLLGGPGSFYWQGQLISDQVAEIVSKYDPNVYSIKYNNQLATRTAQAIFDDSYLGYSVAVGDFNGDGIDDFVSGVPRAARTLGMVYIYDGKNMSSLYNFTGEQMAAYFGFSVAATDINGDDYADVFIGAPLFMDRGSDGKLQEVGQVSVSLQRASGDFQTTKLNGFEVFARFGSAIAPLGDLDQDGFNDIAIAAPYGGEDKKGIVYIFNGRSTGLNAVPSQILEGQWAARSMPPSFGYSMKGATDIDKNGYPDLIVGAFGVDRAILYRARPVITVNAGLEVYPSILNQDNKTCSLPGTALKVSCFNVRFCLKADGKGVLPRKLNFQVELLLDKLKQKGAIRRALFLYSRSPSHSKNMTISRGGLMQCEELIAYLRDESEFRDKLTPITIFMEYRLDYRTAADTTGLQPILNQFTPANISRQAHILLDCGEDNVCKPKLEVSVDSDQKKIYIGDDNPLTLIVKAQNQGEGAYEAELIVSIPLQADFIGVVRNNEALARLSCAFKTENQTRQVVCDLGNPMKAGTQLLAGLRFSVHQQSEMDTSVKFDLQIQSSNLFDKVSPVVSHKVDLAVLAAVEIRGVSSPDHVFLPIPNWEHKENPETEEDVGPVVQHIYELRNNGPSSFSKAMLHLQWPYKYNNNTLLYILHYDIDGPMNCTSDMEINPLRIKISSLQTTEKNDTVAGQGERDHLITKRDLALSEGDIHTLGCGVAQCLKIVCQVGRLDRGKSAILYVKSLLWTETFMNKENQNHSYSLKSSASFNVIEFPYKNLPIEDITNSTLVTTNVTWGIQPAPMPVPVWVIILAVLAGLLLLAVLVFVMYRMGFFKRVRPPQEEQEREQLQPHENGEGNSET
αvβ3 integrin (human, on MDA-MB-231, MDA-MB-435, HAEC and HMEC cells) (human), sequence (P05106 27-788, chain 2 of 2, further chain): as the sequence (P05106 27-788) above

B1: GST-mS1ED: recombinant mouse syndecan-1 ectodomain expressed as a fusion protein with GST (protein)
chain: QIVAVNVPPEDQDGSGDDSDNFSGSGTGALPDTLSRQTPSTWKDVWLLTATPTAPEPTSSNTETAFTSVLPAGEKPEEGEPVLHVEAEPGFTARDKEKEVTTRPRETVQLPITQRASTVRVTTAQAAVTSHPHGGMQPGLHETSAPTAPGQPDHQPPRVEGGGTSVIKEVVEDGTANQLPAGEGSGEQDFTFETSGENTAVAAVEPGLRNQPPVDEGATGASQSLLDRKEVLG
modifications: left off: a dimerising Fc or GST
notes: recombinant mouse syndecan-1 ectodomain expressed as a fusion protein with GST
**Q.** Which results are given for B1?
**A.** migration of MDA-MB-231 and MB-435 cells across VN, 20 µM GST-mS1ED [1]: 2 to 4 fold; WOW1 binding (αvβ3 activation) (αvβ3 integrin [2]): WOW1 fails to bind; WOW1 binding (αvβ3 activation) (αvβ3 integrin [3]): WOW1 staining is also lost; cell migration across FN (MCF-7 cells): neither inhibitor has any effect; cell migration across VN (MCF-7 cells): unaffected; αvβ3 and αvβ5 integrin-mediated spreading on VN [4]: disrupted; collaboration between Sdc-1 and αvβ3 integrins in cells adherent to Sdc-1-specific antibody [5]: disrupted
